This is an account of results in US20220356229A1.

In assay [1] the target is SARS-CoV-2 full length Spike protein, lineage B.1.351 (SARS-CoV-2).
The target in assay [2] is SARS-CoV-2 full length Spike protein, lineage B.1.1.7 (SARS-CoV-2).

B1: antibody 1538 (antibody, V domains shown)
VH: EVQLLESGGGLVQPGGSLRLSCAASGFTFSSYAMSWVRQAPGKGLEWVSGISDSGGSTYYADYVKGRFTISRDNSKDTLYLQMNSLRAEDTAVYYCAKDRGNEYALTHYYYYAMDVWGQGTTVTVSS
VL: DIQMTQSPSSLSASVGDRVTITCRASQSISSYLNWYQQKPGKAPKLLIYAAYSLQSGVPSRFSGGGSGTDFTLTISSLQPEDFATYFCQQSYSTPITFGQGTRLEIKR
B1: the figures for the bead assay binding signal in assay [1] and in assay [2] were 928 and 706, respectively.

B2: antibody 851 (antibody, V domains shown)
VH: QITLKESGPTLVKPTQTLTLTCTFSGFSLSTNGVGMGWIRQPPGKALEWLALIYWDDDQFYSPSLKSRLTITRDTSKNQVVLTMTNMDPVDTATYYCAQAFYESFGFYSWGQGTLVTVSS
VL: NFMLTQPHSVSESPGKTVIISCTRSIGSIASNYVQWYQQRPGSAPTIVVFEDNERPSGVPDRFSGSIDRSSNSASLTISGLKTEDEADYYCQSYDGSSELVFGGGTKLTVLG
Consider B2, for which the results for the bead assay binding signal in assay [1] and in assay [2] were 681 and 545, respectively.

B3: antibody 923 (antibody, V domains shown)
VH: EVQLVESGGGVVRPGGSLRLSCAASGFIFDDYDMTWVRQAPGKGLEWVSGISWNGGNTGYADSVKGRFTISRDNAKNSLYLQMNSLRAEDTALYHCAVIMSPIPRYSGYDWAGGAFDIWGQGTMVTVSS
VL: SSELTQDPAVSVALGQTVRITCQGDSLRSYYASWYQQKPGQVPILVIYDKNNRPSGIPDRFSGSSSGNTASLTITGAQAEDEADYYCNSRDSSGNAVVFGGGTKLTVLG
As to B3, the bead assay binding signal in assay [1] came to 435; in assay [2], 604.

B4: antibody 896 (antibody, V domains shown)
VH: EVQLVESGGGVVQPGGSLRLSCAASGFTFDDYAMHWVRQVPGKGLEWVSLISGDGGSTYYADSVKGRFTISRDNSKNSLYVQMNSLRTEDTALYYCVKDRGGSGWDLNHYYYGMDVWGQGTTVTVSS
VL: DIQLTQSPSFLSASVGDRVTVTCRASQGISSYLAWYQQKPGKAPKLLIYAAYTLQSGVPSRFSGSGSETEFTLTISSLQPEDFATYYCQQVKSYPLTFGGGTKVEIKR
With B4, the bead assay binding signal amounted to 946 in assay [1] and 692 in assay [2].

B5: antibody 1444 (antibody, V domains shown)
VH: QVQLVQSGAEVKKPGASVKVSCKASGYTFTAYYMHWVRQAPGQGLEWMGWINPNSDDTNYAQKFQGRVTMTRDTSISTAYMELSRLRSDDTAVYYCAREEGVFTIGDRYFDLWGRGTLVSVSS
VL: QTVVTQEPSFSVSPGGTVTLTCGLSSGSVSTSYYPSWYQQTPGQAPRTLIYNTNTRSSGVPDRFSGSILGNKAALTITGAQADDESDYYCVLYMGSGIWVFGGGTKLTVLG
For the molecule B5, the bead assay binding signal in assay [1] is 802; in assay [2], 626.

B6: antibody 1037 (antibody, V domains shown)
VH: QITLKESGPTLVKPTQTLTLTCTFSGFSLSTSGVGVGWIRQPPGKALEWLALIYWDDDKRYSPSLKSRLTITKDTSKNQVVLTMTNMDPVDTATYYCAHHTITRINDYWGQGTLVTVSS
VL: QSALTQPASVSGSPGQSITISCTATSSDVGAYNYVSWYQQHPGKAPKLMIYDVSKRPSGVSNRFSGSKSGNTASLTISGLQAEDEADYYCSSYTSSSTVFGGGTKLTVLG
On to B6, for which the bead assay binding signal in assay [1] worked out at 985; in assay [2], 749.

B7: antibody 1404 (antibody, V domains shown)
VH: QITLKESGPTLVKPTQTLTLTCTFSGFSLSISGVGVGWLRQPPGKALEWLALIYWDDDKRYSPSLKSRLTISKDTSKNQVVLKMTNIDPVDTATYYCAHHSISTIFDHWGQGTLVTVSS
VL: QSALTQPASVSGSPGQSITISCTATSSDVGDYNYVSWYQQHPGKAPKLMIFEVSDRPSGISNRFSGSKSGNTASLTISGLQAEDEADYYCSSYTTSSAVFGGGTKLTVLG
For B7, the bead assay binding signal in assay [1] was found to be 941; in assay [2], 719.
